Source: publication doi:10.1101/2022.02.28.482286 (bioRxiv, 2022)
One block for each binder: values may come before it.

Columns and labels:
Experiment in all cases: cryo-EM structure
[1] = molecular target: T1, Pol III subunit C160 (S. cerevisiae, UniProt P04051 1-1460)
T1 sequence (looked up): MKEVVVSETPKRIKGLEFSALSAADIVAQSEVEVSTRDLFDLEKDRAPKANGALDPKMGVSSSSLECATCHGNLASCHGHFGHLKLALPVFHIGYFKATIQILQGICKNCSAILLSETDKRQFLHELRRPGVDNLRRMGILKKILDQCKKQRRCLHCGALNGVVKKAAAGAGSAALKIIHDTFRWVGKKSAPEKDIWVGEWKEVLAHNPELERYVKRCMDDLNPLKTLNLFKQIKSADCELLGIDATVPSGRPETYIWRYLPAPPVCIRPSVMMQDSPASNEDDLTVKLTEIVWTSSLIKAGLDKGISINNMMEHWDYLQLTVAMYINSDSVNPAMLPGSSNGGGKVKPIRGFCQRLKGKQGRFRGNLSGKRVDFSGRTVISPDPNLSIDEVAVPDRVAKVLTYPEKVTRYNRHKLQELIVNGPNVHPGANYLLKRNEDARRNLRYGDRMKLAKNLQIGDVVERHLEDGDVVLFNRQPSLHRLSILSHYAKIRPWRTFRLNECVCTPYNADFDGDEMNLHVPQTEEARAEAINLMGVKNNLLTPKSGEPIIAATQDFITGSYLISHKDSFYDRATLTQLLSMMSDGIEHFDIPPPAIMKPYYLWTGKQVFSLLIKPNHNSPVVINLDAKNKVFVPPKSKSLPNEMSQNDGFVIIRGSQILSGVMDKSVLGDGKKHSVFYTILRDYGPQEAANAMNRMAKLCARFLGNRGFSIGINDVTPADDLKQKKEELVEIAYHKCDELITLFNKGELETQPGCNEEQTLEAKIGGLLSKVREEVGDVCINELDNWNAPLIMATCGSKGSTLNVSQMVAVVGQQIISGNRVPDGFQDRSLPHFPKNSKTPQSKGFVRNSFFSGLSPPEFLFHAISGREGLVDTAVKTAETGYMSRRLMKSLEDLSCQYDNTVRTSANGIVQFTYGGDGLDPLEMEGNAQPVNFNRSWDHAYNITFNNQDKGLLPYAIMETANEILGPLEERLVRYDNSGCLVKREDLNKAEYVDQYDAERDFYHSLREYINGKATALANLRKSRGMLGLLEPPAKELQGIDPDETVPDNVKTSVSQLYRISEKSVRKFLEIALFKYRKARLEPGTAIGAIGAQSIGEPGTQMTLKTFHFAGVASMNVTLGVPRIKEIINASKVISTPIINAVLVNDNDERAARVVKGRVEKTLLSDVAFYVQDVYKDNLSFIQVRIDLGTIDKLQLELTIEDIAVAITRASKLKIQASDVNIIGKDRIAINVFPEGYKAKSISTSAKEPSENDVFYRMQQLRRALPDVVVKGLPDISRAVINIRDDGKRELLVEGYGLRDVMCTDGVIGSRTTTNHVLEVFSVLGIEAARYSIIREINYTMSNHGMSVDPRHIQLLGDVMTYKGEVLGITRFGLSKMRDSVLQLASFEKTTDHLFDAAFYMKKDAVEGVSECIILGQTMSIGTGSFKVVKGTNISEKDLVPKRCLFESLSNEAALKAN

[2] = molecular target: T2, subunit ABC27 (S. cerevisiae, UniProt P20434 1-215)
T2 sequence (looked up): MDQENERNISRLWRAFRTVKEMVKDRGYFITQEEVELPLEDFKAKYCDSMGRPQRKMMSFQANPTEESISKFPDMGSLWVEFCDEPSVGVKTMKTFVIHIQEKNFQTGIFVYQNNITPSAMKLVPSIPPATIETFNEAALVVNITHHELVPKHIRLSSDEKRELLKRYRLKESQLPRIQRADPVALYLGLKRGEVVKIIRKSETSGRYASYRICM

[3] = molecular target: T3, Pol III subunit C128 (S. cerevisiae, UniProt P22276 1-1149)
T3 sequence (looked up): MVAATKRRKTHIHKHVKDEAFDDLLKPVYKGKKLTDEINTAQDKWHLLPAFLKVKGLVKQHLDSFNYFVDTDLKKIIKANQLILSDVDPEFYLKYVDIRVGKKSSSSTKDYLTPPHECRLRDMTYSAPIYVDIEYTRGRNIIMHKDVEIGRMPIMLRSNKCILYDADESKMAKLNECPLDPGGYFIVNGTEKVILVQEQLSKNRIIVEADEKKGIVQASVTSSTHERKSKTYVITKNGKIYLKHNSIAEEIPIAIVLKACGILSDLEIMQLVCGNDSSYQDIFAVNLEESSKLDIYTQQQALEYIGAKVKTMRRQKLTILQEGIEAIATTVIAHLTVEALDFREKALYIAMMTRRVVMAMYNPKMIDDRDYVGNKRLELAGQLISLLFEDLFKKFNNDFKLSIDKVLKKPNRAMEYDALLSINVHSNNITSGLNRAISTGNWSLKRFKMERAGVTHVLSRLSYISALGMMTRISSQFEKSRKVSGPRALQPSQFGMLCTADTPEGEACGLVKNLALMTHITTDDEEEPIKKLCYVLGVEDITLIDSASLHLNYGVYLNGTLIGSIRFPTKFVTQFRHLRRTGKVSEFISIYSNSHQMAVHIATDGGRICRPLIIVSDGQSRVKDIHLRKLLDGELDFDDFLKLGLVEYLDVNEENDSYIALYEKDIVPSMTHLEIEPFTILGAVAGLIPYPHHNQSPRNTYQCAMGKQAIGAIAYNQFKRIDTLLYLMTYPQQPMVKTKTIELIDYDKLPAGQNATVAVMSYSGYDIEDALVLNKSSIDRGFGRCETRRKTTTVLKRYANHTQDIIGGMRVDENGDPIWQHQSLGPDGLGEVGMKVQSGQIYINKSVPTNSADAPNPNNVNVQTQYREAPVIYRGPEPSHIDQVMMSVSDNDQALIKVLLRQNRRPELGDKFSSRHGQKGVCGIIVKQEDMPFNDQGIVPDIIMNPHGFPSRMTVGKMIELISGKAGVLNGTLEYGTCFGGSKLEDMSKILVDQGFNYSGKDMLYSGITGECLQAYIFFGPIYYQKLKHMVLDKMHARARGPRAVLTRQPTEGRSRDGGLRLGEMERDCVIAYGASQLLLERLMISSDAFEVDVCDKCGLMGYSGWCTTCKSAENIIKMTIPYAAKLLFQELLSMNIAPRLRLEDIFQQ

[4] = molecular target: T4, Pol III subunit C53 (S. cerevisiae, UniProt P25441 1-422)
T4 sequence (looked up): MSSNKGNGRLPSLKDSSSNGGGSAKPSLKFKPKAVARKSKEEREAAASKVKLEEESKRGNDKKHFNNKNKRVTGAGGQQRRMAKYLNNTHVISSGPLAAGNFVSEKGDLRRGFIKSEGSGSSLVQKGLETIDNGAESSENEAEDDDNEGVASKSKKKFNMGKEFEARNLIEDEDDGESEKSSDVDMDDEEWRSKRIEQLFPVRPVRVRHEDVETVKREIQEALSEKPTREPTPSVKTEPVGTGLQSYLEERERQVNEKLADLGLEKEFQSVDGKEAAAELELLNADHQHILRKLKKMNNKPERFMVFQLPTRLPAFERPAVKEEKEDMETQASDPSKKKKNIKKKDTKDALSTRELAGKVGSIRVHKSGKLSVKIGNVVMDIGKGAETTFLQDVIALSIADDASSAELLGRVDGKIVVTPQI

- binding result [1]: binds
- binding result [2]: binds
B1: Pol III subunit C11 (natural protein, S. cerevisiae, UniProt Q04307 1-110, looked up)
chain: MLSFCPSCNNMLLITSGDSGVYTLACRSCPYEFPIEGIEIYDRKKLPRKEVDDVLGGGWDNVDQTKTQCPNYDTCGGESAYFFQLQIRSADEPMTTFYKCVNCGHRWKEN

- binding result [3]: binds
B2: C53-C37 heterodimer (complex, S. cerevisiae)
chain 1: T4 sequence (looked up)
chain 2: MSIDNKLFVTEEDEEDRTQDRADVEDESNDIDMIADENGTNSAIANEQEEKSEEVKAEDDTGEEEEDDPVIEEFPLKISGEEESLHVFQYANRPRLVGRKPAEHPFISAARYKPKSHLWEIDIPLDEQAFYNKDKAESEWNGVNVQTLKGVGVENNGQYAAFVKDMQVYLVPIERVAQLKPFFKYIDDANVTRKQEDARRNPNPSSQRAQVVTMSVKSVNDPSQNRLTGSLLAHKVADEEANIELTWAEGTFEQFKDTIVKEAEDKTLVALEKQEDYIDNLV

- binding result [4]: binds
- binding result [3]: binds
B3: Pol III subunit C37 (natural protein, S. cerevisiae, UniProt P36121 1-282, looked up)
chain: B2 chain 2
